In IntAct's records for PubMed 22333915:

B1: Transcription factor NRM1 (Saccharomyces cerevisiae), P53718 (parent)
chain: MSIMKQRLPLGEFSSSKINKLAIANIADASEPRNHGENNVGTVCLPSIKSLMVSPEVYENTKSLPVPLMRSSGGGMACASKSSCQDGISTKTTSRDYSELSKKLQIRLQFAYYKYKTKQTDKNFTDLKSKHSITRPSKVATHSKSEPLTRRRKLVLSQGHYKTPARSKIKTPSSICSHDNTSSFTSFRGVSESSSTTADMNVADTTTPIRNNINTKHSNSHNRTLYQRQETPTSIKAAKSLIHLFTSNQ

Variants of: B1
Details: with rad53_yeast RAD53, P22216
Sequence of rad53_yeast RAD53, P22216 (P22216 whole entry): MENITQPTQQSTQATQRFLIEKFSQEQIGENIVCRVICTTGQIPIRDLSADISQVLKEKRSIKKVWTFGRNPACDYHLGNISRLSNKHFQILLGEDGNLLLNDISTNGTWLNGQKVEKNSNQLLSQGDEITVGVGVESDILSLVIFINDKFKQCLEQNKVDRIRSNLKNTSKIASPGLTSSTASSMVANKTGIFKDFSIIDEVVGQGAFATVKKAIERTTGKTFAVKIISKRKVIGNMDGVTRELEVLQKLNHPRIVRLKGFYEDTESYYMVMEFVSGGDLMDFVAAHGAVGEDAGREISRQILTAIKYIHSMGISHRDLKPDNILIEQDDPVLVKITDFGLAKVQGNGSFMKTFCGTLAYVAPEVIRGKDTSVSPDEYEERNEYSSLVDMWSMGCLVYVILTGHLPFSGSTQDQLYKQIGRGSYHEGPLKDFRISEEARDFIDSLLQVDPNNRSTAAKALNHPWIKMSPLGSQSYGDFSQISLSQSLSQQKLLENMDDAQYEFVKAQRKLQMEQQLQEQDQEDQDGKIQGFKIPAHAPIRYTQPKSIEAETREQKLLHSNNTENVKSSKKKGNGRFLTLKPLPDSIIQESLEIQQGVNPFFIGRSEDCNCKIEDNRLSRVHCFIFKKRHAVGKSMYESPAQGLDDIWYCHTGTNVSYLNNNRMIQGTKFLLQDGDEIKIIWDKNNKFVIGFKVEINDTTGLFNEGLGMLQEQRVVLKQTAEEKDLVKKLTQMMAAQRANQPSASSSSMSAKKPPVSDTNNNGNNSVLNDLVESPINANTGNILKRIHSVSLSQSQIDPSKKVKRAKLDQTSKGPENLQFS

Row | effect of a mutation on the interaction | Variant
1 | decreasing interaction | T42A;S47A;S145A;S240A
